Assay [1] deals with WT Spike (SARS-CoV-2, UniProt P0DTC2 16-1213).
Assay [2] has as its target WT Spike (SARS-CoV2, UniProt P0DTC2 16-1213).
Assay [3] deals with spike protein on live SARS-CoV-2 (isolate USA-WA1/2020) (SARS-CoV2, UniProt P0DTC2 14-1273). The experiment in a line: cell-based or functional assay.

Substitutions are numbered along the chain they refer to.

B1: RBD-R3-T1-H3 (Ab_2) (scFv, V domains shown)
VH: EVQLVQSGAEVKKPGSSVKVSCKTSGYTFTTSGISWVRQAPGQGLEWMGWISAYNGNTNYAQKLQGRVTMTTDTSTSTAYMELRSLRSDDTAVYYCARDFHLYYGMDVWGKGTLVTVSS
VL: QSALTQPPSASGSPGQSVTISCTGTSSDVGAYNYVSWYQQHPGKAPKLLIYDVTKRPPGVPDRFSGSKSGNTASLTVSGLQAEDEADYYCAVWDDGLNGRVVFGGGTKLTVL
Regarding B1, binding in the assay with WT Spike [1] was put at a Kd of 199 pM.

B2: S1-RBD-R3-T1-G1 Ab (Ab_35) (scFv, V domains shown)
VH: EVQLVQSGAEVKKPGESLRISCKASGYSFTSNWIGWVRQMPGKGLEWMGSIFPGDSDTKYSPSFQGQVTISADRSISTAYLQWSGLKASDTAMYYCARESYNAYGSWGQGTLVTVSS
VL: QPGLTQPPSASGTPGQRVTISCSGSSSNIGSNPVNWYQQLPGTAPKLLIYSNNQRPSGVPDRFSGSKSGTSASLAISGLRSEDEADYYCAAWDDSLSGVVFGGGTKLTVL
For the molecule B2, the Kd (in general, the constant that tells how readily two partners part at equilibrium) with WT Spike [2] stood at 8.9 pM.

B3: S1-RBD-R3-T1-F5 (Ab2-7) (scFv, V domains shown)
VH: QVTLKESGPTRVKPTQTLTLTCTFSGFSLSTTGVGVGWIRQPPGKALEWLALIYWNDDKRYSPSLKSRLTITKDTSKNQVVLTMTNMDPVDTATYYCARISGSGYFYPFDIWGQGTTVTVSS
VL: NFMLTQPHSVSESPGKTVTISCTRSSGSIASNYVQWYQQRPGSSPTTVIYEDNQRPSGVPDRFSGSIDSSSNSASLTISGLKAEDEADYYCQSYDSSSLWVFGGGTKLTVL
B3 gave a Kd in the assay with WT Spike [1] of 7.85 pM.

B4: RBD-R3-E1-G7 (Ab2-10) (scFv, V domains shown)
VH: EVQLVESGPGLVKPSETLSLTCTVSGGSISSYYWSWIRQPAGKGLEWIGRIYTSGSTNYNPSLKSRVTMSVDTSKNQFSLKLSSVTAADTAVYYCARDVGFGWFDRWGQGTLVTVSS
VL: B3 VL with K82T, A83T, Y94F, S97A
For the molecule B4, in the assay with WT Spike [1], binding was put at a Kd of 5.65 pM.

B5: Ab_13 (scFv, V domains shown)
VH: B3 VH with T10K, R11L, T32S, N56D, T72A, N78Y, T117M, S122A
VL: B3 VL with S44A, A83T, S98N
On to B5, for which the Kd in the assay with WT Spike [1] was found to be 8.55 pM.

B6: RBD-R3-E1-B3 Ab (Ab_32) (scFv, V domains shown)
VH: QVQLVQSGAEVKKPGESLKISCKGSGYSFTSYWIGWVRQMPGKGLEWMGIIYPGDSDTRYSPSFQGQVTISADKSISTAYLQWSSLKASDTAMYYCARGWQWHDYWGQGTLVTVSS
VL: QTVVTQEPAVSVALGQTVRITCQGDSLRSYYASWYQQKPGQAPVLVVYDKDKRPSGIPDRFSGSTSGNTASLTITGAQAEDEADYYCNSRDRSDNHVVFGGGTKLTVL
Molecule B6 registered a Kd in the assay with WT Spike [1] of 6.32 pM.

B7: RBD-R3-E1-F5 Ab (Ab_36) (scFv, V domains shown)
VH: QVQLQQSGPGLVKPSQTLSLTCAIFGDSVTSNSAAWNWIRQSPSRGLEWLGRTYYSSKWYNDYAVSVKSRVTINADTSKNQLSLQLNSVTPEDTAVYYCARGWLRLSFDPWGQGTLVTVSS
VL: NFMLTQPHSVSESPGKTVTISCTGSSGSIASNYVQWLQQRLGSAPTTVIYEDNQRPSGVPDRFSGSIDSSSNSASLTISGLKTEDEADYYCQSYDPNNHGVVFGGGTKLTVL
Take B7: the Kd with WT Spike [2] stood at 9.01 pM.

B8: S1-RBD-R3-T1-E2 (Ab7) (scFv, V domains shown)
VH: QVQLVQSGGGLVQPGRSLRLSCAASGFTFDDYAMHWVRQVPGKGLEWVSGIDWNSGVIGYADSVKGRFTISRDNAKNSLYLQMNSLRAEDTALYYCAKDAYSYGFLGAFDIWGQGTMVTVSS
VL: QPGLTQPPSVSVAPGQTARISCGGNNIGSKSVHWYQQKPGRAPVLVVYEDRGRPSGIPERFSGSNSGNTATLTVSRVEAGDEADYYCQVWDGDSDHYVFATGTKVSIL
As to B8, the Kd with WT Spike [1] was 7 pM.

B9: S1-RBD-R3-E1-E8 Ab (Ab 37) (scFv, V domains shown)
VH: QVQLVQSGAEVKKPGASVKVSCKASGYTFTSYGISWVRQAPGQGLEWMGWISTYNGNTNYAQKLQGRVTMTTDTSTSTAYMEVRSLRSDDTAVYYCARDVFGHFDYWGQGTLVTVSS
VL: NFMLTQPHSVSESPGKTVLISCTRSSGNIATNYVQWYQQRPGSAPTTVIYEDNQRPSGVPDRFSGSIDSSSNSASLTISGLKTEDEADYYCKSYDDGNHVFGGGTKLTVL
The molecule B9 displayed a Kd with WT Spike [2] of 9 pM.

B10: S1-R3-T1-H7 (Ab12) (scFv, V domains shown)
VH: EVQLVESGPGVVSPSATLFLTCSVSGGSIRTHSWNWIRQPPGKPLEWIGFIHHSGATNKNPSLKSRVTISSDTSKNEFSLTLTSVTAADTAVYYCARGPGILSYWSRGTLVTVSS
VL: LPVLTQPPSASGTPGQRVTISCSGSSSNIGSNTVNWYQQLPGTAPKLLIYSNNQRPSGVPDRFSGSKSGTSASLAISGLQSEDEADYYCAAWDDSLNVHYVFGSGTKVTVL
The molecule B10 returned a Kd with WT Spike [1] of 8.31 pM.

B11: S1-R3-T1-C4 (Ab_8) (scFv, V domains shown)
VH: QVQLVQSGAEVKKPGSSVKVSCKASGGTFSSYAISWLRQAPGQGLEWMGWINPNSGGTNYAQKFQGRVTMTRDTSISTAYMELSRLRSDDTAVYYCARGSGGYYLGWGQGTLVTVSS
VL: QPGLTQPPSVSKGLRQTATLTCTGNSNNVGNQGAAWLQQHQGHPPKLLSYMNNNRPPGISERFSASRSGNTASLTITGLQPEDEADYYCSAWDSSLSRWVFGGGTKLSVL
In turn, B11 returned a Kd in the assay with WT Spike [1] of 7.15 pM.

B12: S1-RBD-R3-T1-D7 Ab (Ab_34) (scFv, V domains shown)
VH: QVQLVQSGVEVKKPGESLKISCKGSGYSFTSYWIGWVRQMPGKGLEWMGIIYPGDSDTRYSPSFQGQVTISADKSISTAYLQWSSLKASDTAMYYCARTTYSYGSFDYWGQGTLVTVSS
VL: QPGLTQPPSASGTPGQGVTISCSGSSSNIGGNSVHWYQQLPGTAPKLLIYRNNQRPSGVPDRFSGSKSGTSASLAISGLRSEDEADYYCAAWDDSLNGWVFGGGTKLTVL
Consider B12, for which binding in the assay with WT Spike [1] was characterised by a dissociation constant (Kd) of 6.58 pM.

B13: S1-RBD-R3-T1-F9 Ab (Ab_39) (scFv, V domains shown)
VH: QVTLKESGPTLVKPTQTLTLTCTLSGVSLDTIGMRVSWIRQPPGKALEWLARIDWDDDKFYSTALKTRLTISKDTSKNQVVFTMTSMDPVDTATYYCARSGLLYDLDVWGRGTLVTVSS
VL: QSVVTQPPSVSGAPGQRVTISCTGSDSDIGANFVQWYQQLPGTAPKLLIWRNTNRPSGVPDRFSASKSGTSASLAITGLQAEDEADYFCQSYDSSLSAYVFGGGTKVTVL
As for B13, in the assay with WT Spike [2], the affinity, expressed as Kd, was 2.04 pM.

B14: Ab 14 IgG (antibody, V domains shown)
VH: QVQLQQSGPGLVKPSQTLSLTCAISGDSVSSNSAAWNWIRQSPARGLEWLGRTYYRSRWYNDYAISMKSRITINPDTSKNQFSLQLESVTPEDTAVYYCAREIRGFDYWGQGTLVTVSS
VL: QSVLTQPPSASGSPGQSVTISCTGTSSDVGAYNFVSWYQHHPGKAPKLIIYDFNKRPSGVPDRFSGSKSGNTASLTVSGLQADDEADYYCSSYAGSNNFDVVFGGGTKLTVL
Consider B14, for which the “shift of the neutralization IC50 of the IgG against the scFv-Fc” value in assay [3] came out at 40 fold.

B15: Ab 38 (scFv, V domains shown)
VH: QVTLKESGPTLVKPTQTLTLTCTFSGFSLTTSGVSVGWIRQPPGKALEWLALIHWDDDKRYSPSLRSRLTITRDTSKNQVVLTVTDMDPADTGTYYCASFIMTVYAEYFEDWGQGTLVTVSS
VL: EIVLTQSPATLSVSPGERATLSCRASQSVSSNLAWYQQKPGQAPRLLMYDVSTRATGIPARFSGSGSGTEFSLTISSLQSEDFAVYYCQQRGAWPLTFGGGTKVEIK
Consider B15, for which the Kd with WT Spike [2] amounted to 7.86 pM.

Values taken from US20230374114A1 (Dana-Farber, published 2023).
